Source: publication doi:10.1101/2025.08.21.671446 (bioRxiv, 2025)
“And” between values parts separate entries of the source, which are not always exact repeats. Equal values may be shown once. Read-outs that look alike come from different tables or passages of the source.

Columns and labels:
[1] = target: the molecule itself; experiment: SEC
[2] = target: the molecule itself; experiment: SEC; remark: listed apart in the source
[3] = target: T1, MoyR (Mycobacterium tuberculosis H37Rv, UniProt O86331 1-269); experiment: EMSA
T1 sequence: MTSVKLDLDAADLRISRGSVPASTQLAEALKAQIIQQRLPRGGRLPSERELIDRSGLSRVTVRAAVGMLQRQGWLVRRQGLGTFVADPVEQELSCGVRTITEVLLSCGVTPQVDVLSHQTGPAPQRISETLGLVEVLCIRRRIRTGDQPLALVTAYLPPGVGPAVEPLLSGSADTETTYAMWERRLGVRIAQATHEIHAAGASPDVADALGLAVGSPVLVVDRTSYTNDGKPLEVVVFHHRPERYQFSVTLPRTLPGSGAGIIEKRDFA

[4] = target: T1, MoyR; experiment: EMSA; remark: listed apart in the source
[5] = target: T1, MoyR; experiment: EMSA; remark: listed apart in the source

B1: MoyR (Rv0792c), GntR family (HutC subfamily) monooxygenase regulator of Mycobacterium tuberculosis (natural protein)
chain: MTSVKLDLDAADLRISRGSVPASTQLAEALKAQIIQQRLPRGGRLPSERELIDRSGLSRVTVRAAVGMLQRQGWLVRRQGLGTFVADPVEQELSCGVRTITEVLLSCGVTPQVDVLSHQTGPAPQRISETLGLVEVLCIRRRIRTGDQPLALVTAYLPPGVGPAVEPLLSGSADTETTYAMWERRLGVRIAQATHEIHAAGASPDVADALGLAVGSPVLVVDRTSYTNDGKPLEVVVFHHRPERYQFSVTLPRTLPGSGAGIIEKRDFA
[1]
  stoichiometry N: 4 and 6
[2]
  stoichiometry N: 2

B2: moyOf1 (47 bp) (dsDNA)
DNA 1: AGCTTGACAGATGTCATAAGACGTATTAAAACGTCTTATACTCACCA
DNA 2: TGGTGAGTATAAGACGTTTTAATACGTCTTATGACATCTGTCAAGCT
[3]
  Kd: 16.6 nM

B3: moyOf6 (20 bp) (dsDNA)
DNA 1: AGCTTGACAGATGTCATAAG
DNA 2: CTTATGACATCTGTCAAGCT
[4]
  binding result: no binding

B4: moyOf4 (dsDNA)
DNA 1: TAGCAGCGGAAGAAGGTCA
DNA 2: TGACCTTCTTCCGCTGCTA
[5]
  binding result: no binding
